Key:
[1] = molecular target: recombinant EGFR (human EGFR protein) (human) (UniProt P00533); experiment: SPR; settings: bispecific antibody
[2] = molecular target: recombinant PD-L1 (human PD-L1 protein) (human) (UniProt Q9NZQ7); experiment: SPR; settings: bispecific antibody
Sequence of UniProt Q9NZQ7 (Q9NZQ7 19-238): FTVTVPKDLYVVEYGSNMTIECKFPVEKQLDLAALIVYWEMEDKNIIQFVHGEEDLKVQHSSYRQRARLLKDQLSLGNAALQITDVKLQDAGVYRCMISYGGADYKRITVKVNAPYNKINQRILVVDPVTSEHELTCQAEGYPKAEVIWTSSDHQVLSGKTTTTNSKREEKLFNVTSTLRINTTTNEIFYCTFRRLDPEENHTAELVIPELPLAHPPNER

Kd [1] | koff [1] | Kd [2] | koff [2] | Substance
56.3 nM | 0.0295 s⁻¹ | 0.0106 nM | 2.13e-05 s⁻¹ | anti-EGFR/PD-L1 BsAb, knob-in-hole (KIH) asymmetric bivalent format (from UniProt P01857)
0.913 nM | 0.0007 s⁻¹ | 0.000374 nM | 7.56e-07 s⁻¹ | anti-EGFR/PD-L1 BsAb, dual variable domain immunoglobulin (DVD-Ig) symmetric tetravalent format (from UniProt P01857)
